Laboratory results from patent US20150284428A1 (INTERK PEPTIDE THERAPEUTICS, published 2015).

Molecular target: T1, cytoplasmic domain of β6 having the amino acid sequence HDRKEVAKFEAERSKAKWQTGTNPLYRGSTSTFKNVTYKHREKQKVDLSTDC
T1 construct: Integrin β6 subunit cytoplasmic domain; also called β6 domain; cytoplasmic domain fragment of β6
T1 chain: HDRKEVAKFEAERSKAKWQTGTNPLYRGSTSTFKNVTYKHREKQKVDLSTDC
Assay: binding assay of MAP kinase fragments with β6 cytoplasmic domain, FIG. 4

- binding result: binds
Binder: HRDLKPSNLAVNEDCELKILDFGLAR (also called fragment of p38 MAP kinase) [p38 MAP kinase fragment HRDLKPSNLAVNEDCELKILDFGLAR]
